Measured values reported in the supplement of paper PMC9112550, “Optimization of the antimicrobial peptide Bac7 by deep mutational scanning” (BMC Biology, 2022).

System: Escherichia coli TOP10
Test: shrunken log2 fold change of peptide-encoding DNA abundance (4.5 h post-induction vs induction); higher = less antimicrobial activity (less host growth inhibition)
Conditions: time post-induction: 4.5 h; library: site-saturation at positions 5, 18, 19, 20
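Note: peptides expressed intracellularly from a pBAD plasmid library in pooled LB shake-flask culture, induced with 0.3% L-arabinose, DNA abundance read by NGS, three biological replicates, DESeq2 with apeglm shrinkage.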

Sequence	shrunken log2 fold change
RRIRNRPPRLPRPRPRPHQRPRP	0.244
RRIRMRPPRLPRPRPRPWIWPRP	0.106
RRIRQRPPRLPRPRPRPRLIPRP	-0.076
RRIRPRPPRLPRPRPRPTWAPRP	0.381
RRIRHRPPRLPRPRPRPNQTPRP	-0.0854
RRIRIRPPRLPRPRPRPWVRPRP	0.0146
RRIRVRPPRLPRPRPRPYPDPRP	-0.293
RRIRRRPPRLPRPRPRPTDWPRP	0.414
RRIRDRPPRLPRPRPRPIQWPRP	-0.153
RRIRDRPPRLPRPRPRPMEFPRP	-0.0018
RRIRYRPPRLPRPRPRPPRKPRP	0.319
RRIRWRPPRLPRPRPRPYCQPRP	-0.694
RRIRLRPPRLPRPRPRPQPMPRP	0.216
RRIRNRPPRLPRPRPRPIGVPRP	0.249
RRIRMRPPRLPRPRPRPVGPPRP	0.67
RRIRMRPPRLPRPRPRPRPTPRP	1.27
RRIRKRPPRLPRPRPRPPDRPRP	0.862
RRIRLRPPRLPRPRPRPFGIPRP	-0.255
RRIRDRPPRLPRPRPRPVWPPRP	0.225
RRIRPRPPRLPRPRPRPQMCPRP	-0.101
RRIRTRPPRLPRPRPRPVYHPRP	-1.34
RRIRFRPPRLPRPRPRPNPEPRP	-0.197
RRIRRRPPRLPRPRPRPTTFPRP	3.05
RRIRNRPPRLPRPRPRPCHTPRP	-0.316
RRIRFRPPRLPRPRPRPVEVPRP	-1.6

Sequence	shrunken log2 fold change
RRIRIRPPRLPRPRPRPLFHPRP	-0.779
RRIRFRPPRLPRPRPRPHEMPRP	-0.0108
RRIRGRPPRLPRPRPRPQQQPRP	0.843
RRIRKRPPRLPRPRPRPEFDPRP	2.46
RRIRPRPPRLPRPRPRPKMCPRP	0.0196
RRIRPRPPRLPRPRPRPSRRPRP	-0.179
RRIRYRPPRLPRPRPRPHQRPRP	-0.0288
RRIRHRPPRLPRPRPRPVKWPRP	0.421
RRIRDRPPRLPRPRPRPTEKPRP	0.0633
RRIRLRPPRLPRPRPRPAGPPRP	0.338
RRIRNRPPRLPRPRPRPCFYPRP	-0.474
RRIRWRPPRLPRPRPRPYFQPRP	1.83
RRIRRRPPRLPRPRPRPYEQPRP	-0.214
RRIRIRPPRLPRPRPRPHPRPRP	0.192
RRIRRRPPRLPRPRPRPIFAPRP	0.355
RRIRERPPRLPRPRPRPLMVPRP	-0.498
RRIRCRPPRLPRPRPRPHKDPRP	-0.636
RRIRIRPPRLPRPRPRPYHLPRP	-0.115
RRIRVRPPRLPRPRPRPDFVPRP	-0.0423
RRIRHRPPRLPRPRPRPEIIPRP	-0.496
RRIRYRPPRLPRPRPRPYMQPRP	-0.117
RRIRWRPPRLPRPRPRPHLMPRP	-0.0519
RRIRWRPPRLPRPRPRPYYIPRP	-0.459
RRIRVRPPRLPRPRPRPRKQPRP	0.383
RRIRWRPPRLPRPRPRPTKVPRP	-0.0596

Sequence	shrunken log2 fold change
RRIRERPPRLPRPRPRPLPEPRP	0.0716
RRIRERPPRLPRPRPRPGDPPRP	0.103
RRIRARPPRLPRPRPRPCYPPRP	-0.209
RRIRGRPPRLPRPRPRPDRPPRP	0.376
RRIRIRPPRLPRPRPRPKLIPRP	-0.233
RRIRLRPPRLPRPRPRPIVMPRP	-0.618
RRIRGRPPRLPRPRPRPFTFPRP	-0.0577
RRIRERPPRLPRPRPRPVRGPRP	0.543
RRIRGRPPRLPRPRPRPEIDPRP	1.63
RRIRMRPPRLPRPRPRPLPEPRP	1.24
RRIRFRPPRLPRPRPRPVEPPRP	-0.228
RRIRTRPPRLPRPRPRPYMHPRP	-0.685
RRIRNRPPRLPRPRPRPQWQPRP	-0.0605
RRIRERPPRLPRPRPRPNGCPRP	0.00429
RRIRPRPPRLPRPRPRPCFAPRP	0.0019
RRIRGRPPRLPRPRPRPRRAPRP	0.963
RRIRPRPPRLPRPRPRPGYMPRP	-0.126
RRIRWRPPRLPRPRPRPVGMPRP	0.456
RRIRLRPPRLPRPRPRPQTDPRP	-0.139
RRIRVRPPRLPRPRPRPIYGPRP	-0.0564
RRIRWRPPRLPRPRPRPVDRPRP	-0.0331
RRIRNRPPRLPRPRPRPLSDPRP	-0.0613
RRIRVRPPRLPRPRPRPVKEPRP	0.629
RRIRQRPPRLPRPRPRPVWWPRP	0.015
RRIRRRPPRLPRPRPRPKSGPRP	-0.0499

Sequence	shrunken log2 fold change
RRIRERPPRLPRPRPRPANCPRP	-0.65
RRIRLRPPRLPRPRPRPPKHPRP	0.117
RRIRERPPRLPRPRPRPVHSPRP	-0.0947
RRIRGRPPRLPRPRPRPNMLPRP	0.374
RRIRIRPPRLPRPRPRPLPFPRP	-1.01
RRIRKRPPRLPRPRPRPYYGPRP	-0.101
RRIRLRPPRLPRPRPRPMLPPRP	-0.164
RRIRIRPPRLPRPRPRPIPLPRP	3.4
RRIRQRPPRLPRPRPRPSDLPRP	-0.333
RRIRRRPPRLPRPRPRPEQCPRP	-0.00836
RRIRCRPPRLPRPRPRPRRQPRP	0.403
RRIRSRPPRLPRPRPRPIYCPRP	-0.876
RRIRWRPPRLPRPRPRPYECPRP	-0.148
RRIRWRPPRLPRPRPRPCNTPRP	-0.169
RRIRDRPPRLPRPRPRPYKIPRP	-1.46
RRIRKRPPRLPRPRPRPWIYPRP	-0.00162
RRIRIRPPRLPRPRPRPPECPRP	-0.17
RRIRWRPPRLPRPRPRPSHGPRP	-0.583
RRIRMRPPRLPRPRPRPNMRPRP	1.6
RRIRERPPRLPRPRPRPIEIPRP	-0.186
RRIRCRPPRLPRPRPRPVWGPRP	-0.0554
RRIRQRPPRLPRPRPRPHDHPRP	-0.0539
RRIRLRPPRLPRPRPRPNKVPRP	-0.21
RRIRRRPPRLPRPRPRPVDSPRP	0.127
RRIRFRPPRLPRPRPRPYHVPRP	0.0272

Sequence	shrunken log2 fold change
RRIRQRPPRLPRPRPRPDIHPRP	-0.0439
RRIRYRPPRLPRPRPRPYYLPRP	-0.31
RRIRARPPRLPRPRPRPHCSPRP	-0.131
RRIRDRPPRLPRPRPRPDHVPRP	-0.012
RRIRSRPPRLPRPRPRPIIAPRP	-0.0683
RRIRCRPPRLPRPRPRPCLEPRP	-0.0191
RRIRDRPPRLPRPRPRPYYKPRP	-0.195
RRIRKRPPRLPRPRPRPWCPPRP	0.0532
RRIRYRPPRLPRPRPRPPLSPRP	-0.283
RRIRQRPPRLPRPRPRPGCSPRP	0.0894
RRIRERPPRLPRPRPRPMMQPRP	-0.0983
RRIRNRPPRLPRPRPRPNTNPRP	-0.59
RRIRIRPPRLPRPRPRPHNSPRP	-0.132
RRIRKRPPRLPRPRPRPWEAPRP	0.0326
RRIRMRPPRLPRPRPRPDYDPRP	0.635
RRIRSRPPRLPRPRPRPYVAPRP	-0.402
RRIRIRPPRLPRPRPRPGGVPRP	0.0574
RRIRRRPPRLPRPRPRPNRYPRP	-0.365
RRIRERPPRLPRPRPRPVSPPRP	-0.33
RRIRRRPPRLPRPRPRPQQWPRP	0.0704
RRIRKRPPRLPRPRPRPIPVPRP	-0.193
RRIRNRPPRLPRPRPRPIRWPRP	0.18
RRIRFRPPRLPRPRPRPLWGPRP	0.251
RRIRARPPRLPRPRPRPLWIPRP	-0.0129
RRIRIRPPRLPRPRPRPTHAPRP	0.216

Sequence	shrunken log2 fold change
RRIRQRPPRLPRPRPRPGIPPRP	-0.0269
RRIRERPPRLPRPRPRPCHHPRP	-0.209
RRIRTRPPRLPRPRPRPDFVPRP	-0.106
RRIRFRPPRLPRPRPRPSWYPRP	-0.401
RRIRFRPPRLPRPRPRPTSHPRP	-0.193
RRIRKRPPRLPRPRPRPCTNPRP	-0.0404
RRIRIRPPRLPRPRPRPCFVPRP	-0.422
RRIRMRPPRLPRPRPRPEEKPRP	2.64
RRIRERPPRLPRPRPRPQHVPRP	-0.356
RRIRERPPRLPRPRPRPPRTPRP	0.316
RRIRPRPPRLPRPRPRPWHWPRP	-0.0102
RRIRTRPPRLPRPRPRPNCSPRP	-0.435
RRIRCRPPRLPRPRPRPGLRPRP	0.147
RRIRKRPPRLPRPRPRPSGHPRP	-0.0496
RRIRIRPPRLPRPRPRPVHIPRP	-0.155
RRIRWRPPRLPRPRPRPPWCPRP	0.183
RRIRPRPPRLPRPRPRPYNCPRP	-1.4
RRIRFRPPRLPRPRPRPNAAPRP	0.419
RRIRGRPPRLPRPRPRPDWDPRP	0.596
RRIRRRPPRLPRPRPRPYYPPRP	-0.468
RRIRARPPRLPRPRPRPQKMPRP	-0.000461
RRIRERPPRLPRPRPRPCTLPRP	-0.407
RRIRQRPPRLPRPRPRPDELPRP	-0.0583
RRIRLRPPRLPRPRPRPLCWPRP	0.487
RRIRVRPPRLPRPRPRPLQTPRP	0.158
